Results published in IntAct's records for PubMed 22198837.

B1: Histone chaperone RTT106 (Saccharomyces cerevisiae), P40161 (parent)
chain: MSKLFLDELPESLSRKIGTVVRVLPSSLEIFEELYKYALNENSNDRSGRHKKPRIDVSSDLLKTDEISETNTIFKLEGVSVLSPLRKKLDLVFYLSNVDGSPVITLLKGNDRELSIYQLNKNIKMASFLPVPEKPNLIYLFMTYTSCEDNKFSEPVVMTLNKENTLNQFKNLGLLDSNVTDFEKCVEYIRKQAILTGFKISNPFVNSTLVDTDAEKINSFHLQCHRGTKEGTLYFLPDHIIFGFKKPILLFDASDIESITYSSITRLTFNASLVTKDGEKYEFSMIDQTEYAKIDDYVKRKQMKDKSMSEELKAKSKSKGQATDGTADQPSILQEATRQMQDEKKAGVFSDDDEENDQNFEAESDLSDGSGQESSDGAEDGEEAEEDDEEDDEEEDKKGQSALNRDNSFASINGQPEQELQYKEFKEPLELEDIPIEIDNDDDEDDEDGSGVEYD

Variants of: B1
Conditions: with h3_yeast HHT1, P61830

Effect of a mutation on the interaction, disrupting interaction strength:
MSKLFLDELPESLSRKIGTVVRVLPSSLEIFEELYKYALNENSNDRSGRHKKPRIDVSSDLLKTDEISETNTIFKLEGVSVLSPLRKKLDLVFYLSNVDGSPVITLLKGNDRELSIYQLNKNIKMASFLPVPEKPNLIYLFMTYTSCEDNKFSEPVVMTLNKENTLNQFKNLGLLDSNVTDFEKCVEYIRKQAILTGFKISNPFVNSTLVDTDAEKINSFHLQCHRGTKEGTLYFLPDHIIFGFKKPILLFDASDIESITYSSIERLTFNASLVTKDGEKYEFSMIDQTEYAKIDDYVKRKQMKDKSMSEELKAKSKSKGQATDGTADQPSILQEATRQMQDEKKAGVFSDDDEENDQNFEAESDLSDGSGQESSDGAEDGEEAEEDDEEDDEEEDKKGQSALNRDNSFASINGQPEQELQYKEFKEPLELEDIPIEIDNDDDEDDEDGSGVEYD [T265E]
MSKLFLDELPESLSRKIGTVVRVLPSSLEIFEELYKYALNENSNDRSGRHKKPRIDVSSDLLKTDEISETNTIFKLEGVSVLSPLAKKLDLVFYLSNVDGSPVITLLKGNDRELSIYQLNKNIKMASFLPVPEKPNLIYLFMTYTSCEDNKFSEPVVMTLNKENTLNQFKNLGLLDSNVTDFEKCVEYIRKQAILTGFKISNPFVNSTLVDTDAEKINSFHLQCHRGTKEGTLYFLPDHIIFGFKKPILLFDASDIESITYSSITRLTFNASLVTKDGEKYEFSMIDQTEYAKIDDYVKRKQMKDKSMSEELKAKSKSKGQATDGTADQPSILQEATRQMQDEKKAGVFSDDDEENDQNFEAESDLSDGSGQESSDGAEDGEEAEEDDEEDDEEEDKKGQSALNRDNSFASINGQPEQELQYKEFKEPLELEDIPIEIDNDDDEDDEDGSGVEYD [R86A]
MSKLFLDELPESLSRKIGTVVRVLPSSLEIFEELYKYALNENSNDRSGRHKKPRIDVSSDLLKTDEISETNTIFKLEGVEVLSPLRKKLDLVFYLSNVDGSPVITLLKGNDRELSIYQLNKNIKMASFLPVPEKPNLIYLFMTYTSCEDNKFSEPVVMTLNKENTLNQFKNLGLLDSNVTDFEKCVEYIRKQAILTGFKISNPFVNSTLVDTDAEKINSFHLQCHRGTKEGTLYFLPDHIIFGFKKPILLFDASDIESITYSSITRLTFNASLVTKDGEKYEFSMIDQTEYAKIDDYVKRKQMKDKSMSEELKAKSKSKGQATDGTADQPSILQEATRQMQDEKKAGVFSDDDEENDQNFEAESDLSDGSGQESSDGAEDGEEAEEDDEEDDEEEDKKGQSALNRDNSFASINGQPEQELQYKEFKEPLELEDIPIEIDNDDDEDDEDGSGVEYD [S80E]
